Experimental data published in patent WO2010028796A1 (dated 2010).

B1: HNN-1000-1000 (antibody, V domains shown)
VH: QVQLQQSGPEVVKPGASVKMSCKASGYTFTSYVIHWVRQKPGQGLDWIGYINPYNDGTDYDEKFKGKATLTSDTSTSTAYMELSSLRSEDTAVYYCAREKDNYATGAWFAYWGQGTLVTVSS
VL: DIVMTQSPDSLAVSLGERVTMNCKSSQSLLYSTNQKNYLAWYQQKPGQSPKLLIYWASTRESGVPDRFSGSGSGTDFTLTISSVQAEDVAVYYCQQYYSYRTFGGGTKLEIK
B2: BNN-1000-1000 (antibody, human IgG1, kappa, L234A L235A, V domains shown)
VH: QVQLQESGPGLVKPSQSLSITCTVSGFPLGAFGVHWVRQSPGKGLEWLGVIWKGGNTDYNAAFKSRLRITKDNSKSQVFFRMNSLQTDDTATYYCAKVNLADAMDYWGQGTTVTVSS
VL: DIQMTQSPASLSASVGETVTITCRASGNAHGYLAWYQQKPGKAPKLLIYNTKTLAEGVPSRFSGSGSGTQFSLKINSAQPEDFGNYYCQHHYDLPRTFGGGTKVEIKR

Tests used:
human CD4 = human CD4 (human, UniProt P01730 26-458); assay: cell-based or functional assay
human CCR5 = human CCR5 (human, UniProt P51681 1-352); assay: cell-based or functional assay
Sequence of human CCR5 (P51681 whole entry): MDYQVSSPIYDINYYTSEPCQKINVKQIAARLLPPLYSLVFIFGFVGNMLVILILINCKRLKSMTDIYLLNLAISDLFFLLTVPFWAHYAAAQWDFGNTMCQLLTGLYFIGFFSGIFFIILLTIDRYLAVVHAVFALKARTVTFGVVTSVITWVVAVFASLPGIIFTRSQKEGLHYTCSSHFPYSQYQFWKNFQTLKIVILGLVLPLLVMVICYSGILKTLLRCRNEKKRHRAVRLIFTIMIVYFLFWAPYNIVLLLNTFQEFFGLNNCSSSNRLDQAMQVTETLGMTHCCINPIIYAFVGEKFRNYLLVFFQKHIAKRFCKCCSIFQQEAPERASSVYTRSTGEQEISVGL

| Binder | IC50, PBMC antiviral assay (HIV-1 NLBal, p24 ELISA) (human CD4) | IC50, PBMC antiviral assay (HIV-1 NLBal, p24 ELISA) (human CCR5) |
| --- | --- | --- |
| B1 | 0.348 nM | – |
| B2 | – | 1.08 nM |
